Laboratory results: US20200181247A1 (published 2020)

Assays:
[1] = target: T1, cyclo(CGHHQKG) (SEQ ID NO: 12) conjugated to BSA (also: conjugated to BSA); test: ProteOn biosensor; antibody amine-coupled to GLH chip, Cyclo-BSA dilutions 9 nM to 111 pM
T1 construct: Synthetic cyclic peptide (CPC Scientific) holding HHQK of A-beta; also called Cyclic Peptide; cyclopeptide
T1 peptide: cyclo(CGHHQKG)
Description: Cyclo-BSA 3-fold dilutions were used from 9 nM to 111 pM. Assay buffer was PBS-E+0.05% Tween+10 mg/ml BSA.

[2] = target: T2, commercially-prepared stable A-beta42 Oligomers (SynAging SAS) (human); test: ProteOn biosensor; antibody captured or amine-coupled on GLM chip, AbO dilutions 1 uM to 12.3 nM
T2 construct: Bought oligomer preparation; also called AbO (SynAging); SynAging AbO
Description: AbO 3 fold-dilutions were used: 1 uM, 0.33 uM, 0.11 uM, 37 nM, 12.3 nM. Assay buffer was PBS-E+Tween 20+2 mg/ml BSA.

[3] = target: T1, cyclo(CGHHQKG) (SEQ ID NO: 12) …; test: single cycle Biacore analysis
Description: The fully humanized antibodies were prepared using Composite Human Antibody™ technology. The humanized variable region genes were cloned into vectors encoding a human IgG4 (S241P hinge variant) heavy chain constant domain and a human kappa light chain constant domain. Chimeric and humanized antibodies were transiently expressed in CHO cells and Protein A purified and tested.
Binding was determined using single cycle Biacore analysis. Antibodies were analysed in two separate experiments.

A-beta42 Monomer = target: T3, A-beta42 Monomer (human); test: SPR; purified antibody immobilized, A-beta preparation flowed over
T3 construct: Recombinant A-beta42 peptide (California Peptide), HFIP-treated, in DMSO then water, used at once; also called Ab42 Monomer; A-beta 1-42 monomer

[4] = target: T4, A-beta42 Oligomer (synthetic, prepared in F12 medium) (human); test: as above
T4 construct: Non-covalent oligomer of recombinant A-beta42 (California Peptide), 100 µM in F12 medium, 24 h to 7 days at 4 °C; also called Ab42 Oligomer; A-beta 1-42 oligomers

[5] = target: T1, cyclo(CGHHQKG) (SEQ ID NO: 12) …; test: SPR; immobilized antibody pre-exposed to cyclic peptide

T2 sequence (peptide, as listed by the source): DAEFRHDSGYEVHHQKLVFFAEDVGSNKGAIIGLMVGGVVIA
T3 sequence (peptide, as listed by the source): as above
T4 sequence (peptide, as listed by the source): as above

Row | Kd [2] | Kd [3] | binding response (RU) (A-beta42 Monomer) | binding response (RU) [4] | further results | Binder
1 | 16.2 to 19.5 nM | – | – | – | Kd [1]: ~0.017 nM | Recombinant 301-17 IgG2a (antibody) heavy: QVQLQQPGAELVKPGASVKMSCKASGYSFTSYWINWVKQRPGQGLEWIGDVHPGRGVSTYNAKFKSKATLTLDTSSSTAYMQLSSLTSEDSAVYYCSRSHGNTYWFFDVWGAGTTVTVSSAKTTAPSVYPLAPVCGDTTGSSVTLGCLVKGYFPEPVTLTWNSGSLSSGVHTFPAVLQSDLYTLSSSVTVTSSTWPSQSITCNVAHPASSTKVDKKIEPRGPTIKPCPPCKCPAPNLLGGPSVFIFPPKIKDVLMISLSPIVTCVVVDVSEDDPDVQISWFVNNVEVHTAQTQTHREDYNSTLRVVSALPIQHQDWMSGKEFKCKVNNKDLPAPIERTISKPKGSVRAPQVYVLPPPEEEMTKKQVTLTCMVTDFMPEDIYVEWTNNGKTELNYKNTEPVLDSDGSYFMYSKLRVEKKNWVERNSYSCSVVHEGLHNHHTTKSFSRTPGK light: DVLMTQTPLSLPVSLGDQASISCRSSQSIVHSNGNTYLEWYLQKPGQSPKLLIYKVSNRFSGVPDRFSGSGSGTDFTLKISRVEAEDLGVYYCFQGSHVPFTFGSGTKLEIKRADAAPTVSIFPPSSEQLTSGGASVVCFLNNFYPKDINVKWKIDGSERQNGVLNSWTDQDSKDSTYSMSSTLTLTKDEYERHNSYTCEATHKTSTSPIVKSFNRNEC
2 | ~26.9 nM | 0.4 nM | -27.1 RU | 148 RU | – | 301-17 (hybridoma-purified 301-17 IgG3) (antibody, V domains shown, Mouse monoclonal from hybridoma, IgG3 / kappa; also called mu301-17) VH: QVQLQQPGAELVKPGASVKMSCKASGYSFTSYWINWVKQRPGQGLEWIGDVHPGRGVSTYNAKFKSKATLTLDTSSSTAYMQLSSLTSEDSAVYYCSRSHGNTYWFFDVWGAGTTVTVSSATTTAPS VL: DVLMTQTPLSLPVSLGDQASISCRSSQSIVHSNGNTYLEWYLQKPGQSPKLLIYKVSNRFSGVPDRFSGSGSGTDFTLKISRVEAEDLGVYYCFQGSHVPFTFGSGTKLEIKRADA
3 | – | – | -14.1 RU | -2.8 RU | – | 301-11 (antibody, V domains shown, Mouse monoclonal from hybridoma, IgG3 / kappa, raised against cyclo(CGHHQKG)-KLH) VH: EVQLVESGGGLVKPGGSLKLSCAASGFTFSDYYMYWVRQTPEKRLEWVATISDGGSYTSYPDSVKGRFTISRDNAKNNLYLQMSSLRSEDTAMYYCARDYYGSSSYTSGFAYWGQGTLVTVSA VL: DIVMSQSPSSLAVSTGEKVTMSCKSSQSLLNSRTRKNYLAWYQQKPGQSPKLLIYWASTRESGVPDRFTGSGSGTDFTLTISSVQAEDLAVYYCKQSYNLYTFGGGTKLEIK
4 | – | ~0.02 nM | – | – | – | 301-17 chimeric antibody (VH0 Vk0, human IgG4) (antibody, V domains shown, expressed in CHO cells; not expressly tied to the chimeric one; also called V0H0 and V0k0) VH: QVQLQQPGAELVKPGASVKMSCKASGYSFTSYWINWVKQRPGQGLEWIGDVHPGRGVSTYNAKFKSKATLTLDTSSSTAYMQLSSLTSEDSAVYYCSRSHGNTYWFFDVWGAGTTVTVSS VL: DVLMTQTPLSLPVSLGDQASISCRSSQSIVHSNGNTYLEWYLQKPGQSPKLLIYKVSNRFSGVPDRFSGSGSGTDFTLKISRVEAEDLGVYYCFQGSHVPFTFGSGTKLEIK
5 | – | – | – | – | binding result [5]: binds | Humanized antibody of 301-17 (VH2 Vk5), IgG4 isotype (S241P hinge mutation) (antibody, V domains shown, also called hu301-17) VH: QVQLVQSGAEVKKPGASVKMSCKASGYSFTSYWINWVKQRPGQGLEWIGDVHPGRGVSTYNAKFKSRATLTLDTSISTAYMELSSLRSEDTAVYYCSRSHGNTYWFFDVWGQGTTVTVSS VL: DVLMTQSPLSLPVTLGQPASISCRSSQSIVHSNGNTYLEWYQQRPGQSPRLLIYKVSNRFSGVPDRFSGSGSGTDFTLKISRVEAEDVGVYYCFQGSHVPFTFGQGTKLEIKR
